# Tests used:
# [1] = test system: CHO-K1 cells expressing MOR; test: Wide field fluorescence microscopy of DRM-800 binding and internalization; assay type: cell-based, Chinese hamster
# Source text: Cells were visualized using a Zeiss LSM 800 inverted microscope with a Generation III 750 nm laser light source (Lumencor, Inc., Beaverton, OR) and a Zeiss Plan-Apochromat 20×/0.8 M27 objective lens. The filters used for imaging DRM-800 were 740 nm for excitation, 770 nm dichroic and 780 nm longpass for emission (Filter Set 49037, Chroma Technology Corp., Bellows Falls, VT). Acquisition of micrographs was accomplished using a digital CMOS Camera (C114400-22CU, Hamamatsu Photonics K.K.) with a 2×2 pixel binning. Images were processed in ImageJ FIJI, windowed and leveled identically across samples, and then adjusted step-wise until cells are visible, with each image being shown for transparency.
# Wide field fluorescence microscopy (Fig. 3) was used to study the binding and internalization of DRM-800 to stably expressed MORs in the membrane of transfected CHO-K1 cells.
# [2] = biological target: MOR (Mus musculus, UniProt P42866); test: Whole body biodistribution by cryo-macrotome fluorescence imaging, wildtype vs MOR knockout; details: 1 hour after IV injection
# [3] = Plasma pharmacokinetics by direct carotid artery fluorescence imaging after intravenous injection; details: for Plasma half-life (time in which the concentration of dye is 50% of initial) / Distribution (α) half-life / Elimination (β) half-life: IV; for Distribution (α) half-life / Elimination (β) half-life: biexponential; for Distribution (α) half-life / Elimination (β) half-life / Distribution rate, b / Elimination rate, d: value (95% CI); for Distribution rate, b / Elimination rate, d: biexponential fit
# [4] = MOR-knockout mice, n = 4, 1 nmol IV tail vein coinjection with IRDye700DX
# [5] = wildtype mice, n = 4, 1 nmol IV tail vein coinjection with IRDye700DX, imaged 1 hour
# [6] = rate constants did not differ between groups (wildtype and MOR-knockout mice), 1 nmol IV coinjection with DRM-800
# MOR, sequence (P42866 whole entry, looked up): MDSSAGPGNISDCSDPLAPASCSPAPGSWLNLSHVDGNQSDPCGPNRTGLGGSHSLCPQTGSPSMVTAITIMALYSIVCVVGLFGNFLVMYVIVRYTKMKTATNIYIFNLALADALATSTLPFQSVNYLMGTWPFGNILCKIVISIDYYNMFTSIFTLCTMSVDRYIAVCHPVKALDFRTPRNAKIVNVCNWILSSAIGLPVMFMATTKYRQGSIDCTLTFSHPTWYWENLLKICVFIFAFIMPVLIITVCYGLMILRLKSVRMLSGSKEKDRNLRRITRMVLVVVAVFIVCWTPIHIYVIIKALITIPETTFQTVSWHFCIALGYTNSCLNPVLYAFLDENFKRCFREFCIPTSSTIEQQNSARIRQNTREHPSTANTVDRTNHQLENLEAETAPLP
compound,measurement,setting,value
"C[C@@H](NC(=O)[C@@H](N)Cc1ccc(O)cc1)C(=O)N[C@@H](Cc1ccccc1)C(=O)NCC(=O)N[C@@H](Cc1ccc(O)cc1)C(=O)N1CCC[C@H]1C(=O)N[C@@H](CCCCN)C(=O)N[C@@H](CSC1CC(=O)N(CCNC(=O)CCCCC[N+]2=C(/C=C/C3=C(Oc4ccc(S(=O)(=O)O)cc4)C(=C/C=C4/N(CCCCS(=O)(=O)O)c5ccc(S(=O)(=O)O)cc5C4(C)C)/CCC3)C(C)(C)c3cc(S(=O)(=O)[O-])ccc32)C1=O)C(N)=O (stereo partly drawn) [DRM-800, IRDye®800CW-labelled YdAFGYPKC-NH2]",Binding and internalization seen by fluorescence microscopy,"[1]; 2 nM and 25 nM, 35°C, 30 min of incubation, no sucrose",plasma membrane fluorescence as well as fluorescent puncta of high intensity in the perinuclear region of the cytoplasm were observable
same,Binding and internalization seen by fluorescence microscopy with internalization inhibited,[1]; 4C with addition of sucrose (0.35 M),fluorescence was distinctly observed at the plasma membrane and intracellular puncta was greatly reduced
same,"Fluorescence in small and large intestine, wildtype compared with knockout",[2]; cryo-macrotome ROI analysis,elevated levels of DRM-800 compared with knockout mice
same,"Ratio of average fluorescence wildtype vs knockout, dorsal root ganglion",[2]; cryo-macrotome ROI analysis,1.8 ± 0.05
same,"Ratio of average fluorescence wildtype vs knockout, left spiral ganglion",[2]; cryo-macrotome ROI analysis,2.2 ± 0.2
same,"Ratio of average fluorescence wildtype vs knockout, right spiral ganglion",[2]; cryo-macrotome ROI analysis,2.9 ± 0.3
same,"Ratio of average fluorescence wildtype vs knockout, trigeminal ganglion",[2]; cryo-macrotome ROI analysis,3.1 ± 0.2
same,Fluorescence signal in brain,"[2]; either group of mice (wildtype, knockout)",did not observe any appreciable signal
same,Plasma half-life (time in which the concentration of dye is 50% of initial),[3]; MOR knockout mice,12.6 min
same,Distribution (α) half-life,[3]; MOR knockout mice,6.2 (4.9 - 8.6) min
same,Elimination (β) half-life,[3]; MOR knockout mice,45 (33–68) min
same,"Distribution rate, b",[3]; [4],0.11 (0.08-0.14) min^−1
same,"Elimination rate, d",[3]; [4],0.0155 (0.0102 - 0.0202) min^−1
same,Plasma half-life following intravenous injection,[3]; mice (abstract summary over wildtype and knockout),8 to 12 min
same,Plasma half-life (time in which the concentration of dye is 50% of initial),[3]; wildtype mice,7.95 min
same,Distribution (α) half-life,[3]; wildtype mice,3.3 (3.1-3.5) min
same,Elimination (β) half-life,[3]; wildtype mice,70.8 (67.2 - 74.8) min
same,"Distribution rate, b",[3]; [5],0.211 (0.197 - 0.224) min^-1
same,"Elimination rate, d",[3]; [5],0.0097 (0.0093 - 0.0103) min^-1
"IRDye®700DX [IRD700, reference compound]","Distribution rate, b",[3]; [6],0.42 (0.36 - 0.47) min^−1
same,"Elimination rate, d",[3]; [6],0.054 (0.051 - 0.057) min^−1
